These results are taken from the supplement of paper PMC3353916.

The subject of the data set is Sindbis virus TE/5'2J-GFP. Description: percent infected (GFP+ in RFP+ ISG-expressing cells); higher = more infection (less antiviral activity). How it is done: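 Confirmatory testing of 87 ISGs. Triplicate wells of BHK/HA-Zeo (control) or BHK/NZAP-Zeo (ZAP) cells were transduced with lentiviruses co-expressing a human ISG plus TagRFP, then infected 48 h later with SINV TE/5'2J-GFP (moi 5). The % GFP+ cells among RFP+ cells was measured by flow cytometry at 8 h post infection. Fluc lentivirus served as control. Three independent experiments.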

Setting [1] is: experiment: confirmatory screen 1, BHK/HA-Zeo (control).
The mark [2] stands for this setting: experiment: confirmatory screen 1, BHK/NZAP-Zeo (ZAP).
The mark [3] stands for this setting: experiment: confirmatory screen 2, BHK/HA-Zeo (control).
The mark [4] stands for this setting: experiment: confirmatory screen 2, BHK/NZAP-Zeo (ZAP).
[5] abbreviates: experiment: confirmatory screen 3, BHK/HA-Zeo (control).
Setting [6] is: experiment: confirmatory screen 3, BHK/NZAP-Zeo (ZAP).

± gives the standard deviation of the averaged measurements.
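Also: Interferon-defective BHK-21 derivatives, ZAP line overexpressing the rat ZAP N-terminal zinc finger domain fused to Zeocin resistance, GFP scored within live singlet TagRFP+ cells.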

Regarding “MSNGYSTDENFRYLISCFRARVKMYIQVEPVLDYLTFLPAEVKEQIQRTVATSGNMQAVELLLSTLEKGVWHLGWTREFVEALRRTGSPLAARYMNPELTDLPSPSFENAHDEYLQLLNLLQPTLVDKLLVRDVLDKCMEEELLTIEDRNRIAAAENNGNESGVRELLKRIVQKENWFSAFLNVLRQTGNNELVQELTGSDCSESNAEIENLSQVDGPQVEEQLLSTTVQPNLEKEVWGMENNSSESSFADSSVVSESDTSLAEGSVSCLDESLGHNSNMGSDSGTMGSDSDEENVAARASPEPELQLRPYQMEVAQPALEGKNIIICLPTGSGKTRVAVYIAKDHLDKKKKASEPGKVIVLVNKVLLVEQLFRKEFQPFLKKWYRVIGLSGDTQLKISFPEVVKSCDIIISTAQILENSLLNLENGEDAGVQLSDFSLIIIDECHHTNKEAVYNNIMRHYLMQKLKNNRLKKENKPVIPLPQILGLTASPGVGGATKQAKAEEHILKLCANLDAFTIKTVKENLDQLKNQIQEPCKKFAIADATREDPFKEKLLEIMTRIQTYCQMSPMSDFGTQPYEQWAIQMEKKAAKEGNRKERVCAEHLRKYNEALQINDTIRMIDAYTHLETFYNEEKDKKFAVIEDDSDEGGDDEYCDGDEDEDDLKKPLKLDETDRFLMTLFFENNKMLKRLAENPEYENEKLTKLRNTIMEQYTRTEESARGIIFTKTRQSAYALSQWITENEKFAEVGVKAHHLIGAGHSSEFKPMTQNEQKEVISKFRTGKINLLIATTVAEEGLDIKECNIVIRYGLVTNEIAMVQARGRARADESTYVLVAHSGSGVIEHETVNDFREKMMYKAIHCVQNMKPEEYAHKILELQMQSIMEKKMKTKRNIAKHYKNNPSLITFLCKNCSVLACSGEDIHVIEKMHHVNMTPEFKELYIVRENKALQKKCADYQINGEIICKCGQAWGTMMVHKGLDLPCLKIRNFVVVFKNNSTKKQYKKWVELPITFPNLDYSECCLFSDED [IFIH1]”, the percent infected by setting is: under setting [1], 70.9 ± 2.3%; under setting [2], 14.9 ± 0.81%; under setting [3], 95.18 ± 0.27%; under setting [4], 92.703 ± 0.051%; under setting [5], 85 ± 1.1%; under setting [6], 81 ± 2.6%.

For the substance “MLQRGLWPWRTRLLPTPGTWRPARPWPLPPPPQVLRVKLCGNVKYYQSHHYSTVVPPDEITVIYRHGLPLVTLTLPSRKERCQFVVKPMLSTVGSFLQDLQNEDKGIKTAAIFTADGNMISASTLMDILLMNDFKLVINKIAYDVQCPKREKPSNEHTAEMEHMKSLVHRLFTILHLEESQKKREHHLLEKIDHLKEQLQPLEQVKAGIEAHSEAKTSGLLWAGLALLSIQGGALAWLTWWVYSWDIMEPVTYFITFANSMVFFAYFIVTRQDYTYSAVKSRQFLQFFHKKSKQQHFDVQQYNKLKEDLAKAKESLKQARHSLCLQMQVEELNEKN [CCDC109B]”, the percent infected reads like this: under setting [1], 92.6 ± 2.3%; under setting [2], 57.4 ± 2%; under setting [3], 97.29 ± 0.17%; under setting [4], 95.61 ± 0.13%; under setting [5], 95.11 ± 0.48%; under setting [6], 93.64 ± 0.74%.

For “MRRLWGAARKPSGAGWEKEWAEAPQEAPGAWSGRLGPGRSGRKGRAVPGWASWPAHLALAARPARHLGGAGQGPRPLHSGTAPFHSRASGERQRRLEPQLQHESRCRSSTPADAWRAEAALPVRAMGAPWGSPTAAAGGRRGWRRGRGLPWTVCVLAAAGLTCTALITYACWGQLPPLPWASPTPSRPVGVLLWWEPFGGRDSAPRPPPDCRLRFNISGCRLLTDRASYGEAQAVLFHHRDLVKGPPDWPPPWGIQAHTAEEVDLRVLDYEEAAAAAEALATSSPRPPGQRWVWMNFESPSHSPGLRSLASNLFNWTLSYRADSDVFVPYGYLYPRSHPGDPPSGLAPPLSRKQGLVAWVVSHWDERQARVRYYHQLSQHVTVDVFGRGGPGQPVPEIGLLHTVARYKFYLAFENSQHLDYITEKLWRNALLAGAVPVVLGPDRANYERFVPRGAFIHVDDFPSASSLASYLLFLDRNPAVYRRYFHWRRSYAVHITSFWDEPWCRVCQAVQRAGDRPKSIRNLASWFER [FUT4]”, the percent infected by setting is: under setting [1], 94.45 ± 0.48%; under setting [2], 62.4 ± 5.3%; under setting [3], 92 ± 1.1%; under setting [4], 94.23 ± 0.27%; under setting [5], 89 ± 2.8%; under setting [6], 92.68 ± 0.55%.

Take “MGERTLHAAVPTPGYPESESIMMAPICLVENQEEQLTVNSKALEILDKISQPVVVVAIVGLYRTGKSYLMNRLAGKRNGFPLGSTVQSETKGIWMWCVPHLSKPNHTLVLLDTEGLGDVEKSNPKNDSWIFALAVLLSSSFVYNSVSTINHQALEQLHYVTELAELIRAKSCPRPDEAEDSSEFASFFPDFIWTVRDFTLELKLDGNPITEDEYLENALKLIPGKNPKIQNSNMPRECIRHFFRKRKCFVFDRPTNDKQYLNHMDEVPEENLERHFLMQSDNFCSYIFTHAKTKTLREGIIVTGKRLGTLVVTYVDAINSGAVPCLENAVTALAQLENPAAVQRAADHYSQQMAQQLRLPTDTLQELLDVHAACEREAIAVFMEHSFKDENHEFQKKLVDTIEKKKGDFVLQNEEASAKYCQAELKRLSEHLTESILRGIFSVPGGHNLYLEEKKQVEWDYKLVPRKGVKANEVLQNFLQSQVVVEESILQSDKALTAGEKAIAAERAMKEAAEKEQELLREKQKEQQQMMEAQERSFQEYMAQMEKKLEEERENLLREHERLLKHKLKVQEEMLKEEFQKKSEQLNKEINQLKEKIESTKNEQLRLLKILDMASNIMIVTLPGASKLLGVGTKYLGSRI [GBP4]”: the percent infected is 95 ± 2.1% under setting [1]; 63 ± 6% under setting [2]; 95.8 ± 0.54% under setting [3]; 95.49 ± 0.44% under setting [4]; 94.22 ± 0.7% under setting [5]; 94.93 ± 0.31% under setting [6].

With “MNMTQARVLVAAVVGLVAVLLYASIHKIEEGHLAVYYRGGALLTSPSGPGYHIMLPFITTFRSVQTTLQTDEVKNVPCGTSGGVMIYIDRIEVVNMLAPYAVFDIVRNYTADYDKTLIFNKIHHELNQFCSAHTLQEVYIELFDQIDENLKQALQKDLNLMAPGLTIQAVRVTKPKIPEAIRRNFELMEAEKTKLLIAAQKQKVVEKEAETERKKAVIEAEKIAQVAKIRFQQKVMEKETEKRISEIEDAAFLAREKAKADAEYYAAHKYATSNKHKLTPEYLELKKYQAIASNSKIYFGSNIPNMFVDSSCALKYSDIRTGRESSLPSKEALEPSGENVIQNKESTG [ERLIN1]”, the percent infected runs as follows: under setting [1], 94.6 ± 1.8%; under setting [2], 79.2 ± 1.4%; under setting [3], 95.84 ± 0.41%; under setting [4], 94.53 ± 0.57%; under setting [5], 91.74 ± 0.47%; under setting [6], 91.63 ± 0.7%.

Turning to “MFAKGKGSAVPSDGQAREKLALYVYEYLLHVGAQKSAQTFLSEIRWEKNITLGEPPGFLHSWWCVFWDLYCAAPERRDTCEHSSEAKAFHDYSAAAAPSPVLGNIPPNDGMPGGPIPPGFFQGPPGSQPSPHAQPPPHNPSSMMGPHSQPFMSPRYAGGPRPPIRMGNQPPGGVPGTQPLLPNSMDPTRQQGHPNMGGSMQRMNPPRGMGPMGPGPQNYGSGMRPPPNSLGPAMPGINMGPGAGRPWPNPNSANSIPYSSSSPGTYVGPPGGGGPPGTPIMPSPADSTNSSDNIYTMINPVPPGGSRSNFPMGPGSDGPMGGMGGMEPHHMNGSLGSGDIDGLPKNSPNNISGISNPPGTPRDDGELGGNFLHSFQNDNYSPSMTMSV [SSBP3]”, the percent infected was 63.1 ± 3.4% under setting [1]; 3.95 ± 1.2% under setting [2]; 94.42 ± 0.81% under setting [3]; 95.08 ± 0.28% under setting [4]; 83.27 ± 0.48% under setting [5]; 54.1 ± 14% under setting [6].

As to ABTB2, the percent infected came to 94.03 ± 0.73% under setting [1]; 63.5 ± 5.5% under setting [2]; 94.02 ± 0.29% under setting [3]; 95.3 ± 0.29% under setting [4]; 93.9 ± 2% under setting [5]; 94.69 ± 0.42% under setting [6].
